The record followed here is article PMC6193735, “Defining LytTR Regulatory Systems”.

This series addresses T1, HdrR (Streptococcus mutans UA140, UniProt Q8DSE1 1-133).
T1 sequence: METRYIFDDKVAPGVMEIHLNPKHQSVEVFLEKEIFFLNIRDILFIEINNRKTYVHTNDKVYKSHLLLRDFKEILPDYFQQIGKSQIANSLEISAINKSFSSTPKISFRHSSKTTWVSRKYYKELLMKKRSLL
In words: EMSA; 1 ng probe, 10-30 ug HdrR as printed, 20 ul; unlabeled wild-type competitor 50 and 200 ng; EMSA: 20 ul, 25 C, 20 min; binding buffer not printed (as ref 62); oligos annealed in 50 mM Tris-HCl pH 8.0, 10 mM MgCl2, 50 mM NaCl, 1 mM EDTA. Particulars: protein: recombinant; tags: His6 (HdrR-His6, pET29b); chain copies: 2; label: 5' digoxigenin-11-ddUTP on forward strand (probe); blunt.

B1: hdrRMP (wild-type hdrRM operon direct repeat probe) (dsDNA)
DNA 1: TAATGGTTACCTCTTAGACATTAAAAATGACCACTTAATAGAAAAG
DNA 2: CTTTTCTATTAAGTGGTCATTTTTAATGTCTAAGAGGTAACCATTA
On to B1, for which the binding result is “binds”.
